The source of these data is PMC6486591.

The target of assay [1] is YenA2 (Yersinia entomophaga) (UniProt B6A878). Nature of the assay: cryo-EM structure; YenTcA soluble pre-pore form, single-particle cryo-EM, 4.4 Å average resolution, C5 symmetry; 0.1 mg/mL in 25 mM Tris, 150 mM NaCl, pH 7.5, with 10 mM NDSB-195.
Assay [2] shares this target. The assay can be described thus: cryo-EM structure; YenTcA pore form inserted into POPC liposomes (1:2 w/w, 3-5 freeze/thaw cycles), single-particle cryo-EM, 11 Å resolution.

YenA2, sequence (B6A878 whole entry): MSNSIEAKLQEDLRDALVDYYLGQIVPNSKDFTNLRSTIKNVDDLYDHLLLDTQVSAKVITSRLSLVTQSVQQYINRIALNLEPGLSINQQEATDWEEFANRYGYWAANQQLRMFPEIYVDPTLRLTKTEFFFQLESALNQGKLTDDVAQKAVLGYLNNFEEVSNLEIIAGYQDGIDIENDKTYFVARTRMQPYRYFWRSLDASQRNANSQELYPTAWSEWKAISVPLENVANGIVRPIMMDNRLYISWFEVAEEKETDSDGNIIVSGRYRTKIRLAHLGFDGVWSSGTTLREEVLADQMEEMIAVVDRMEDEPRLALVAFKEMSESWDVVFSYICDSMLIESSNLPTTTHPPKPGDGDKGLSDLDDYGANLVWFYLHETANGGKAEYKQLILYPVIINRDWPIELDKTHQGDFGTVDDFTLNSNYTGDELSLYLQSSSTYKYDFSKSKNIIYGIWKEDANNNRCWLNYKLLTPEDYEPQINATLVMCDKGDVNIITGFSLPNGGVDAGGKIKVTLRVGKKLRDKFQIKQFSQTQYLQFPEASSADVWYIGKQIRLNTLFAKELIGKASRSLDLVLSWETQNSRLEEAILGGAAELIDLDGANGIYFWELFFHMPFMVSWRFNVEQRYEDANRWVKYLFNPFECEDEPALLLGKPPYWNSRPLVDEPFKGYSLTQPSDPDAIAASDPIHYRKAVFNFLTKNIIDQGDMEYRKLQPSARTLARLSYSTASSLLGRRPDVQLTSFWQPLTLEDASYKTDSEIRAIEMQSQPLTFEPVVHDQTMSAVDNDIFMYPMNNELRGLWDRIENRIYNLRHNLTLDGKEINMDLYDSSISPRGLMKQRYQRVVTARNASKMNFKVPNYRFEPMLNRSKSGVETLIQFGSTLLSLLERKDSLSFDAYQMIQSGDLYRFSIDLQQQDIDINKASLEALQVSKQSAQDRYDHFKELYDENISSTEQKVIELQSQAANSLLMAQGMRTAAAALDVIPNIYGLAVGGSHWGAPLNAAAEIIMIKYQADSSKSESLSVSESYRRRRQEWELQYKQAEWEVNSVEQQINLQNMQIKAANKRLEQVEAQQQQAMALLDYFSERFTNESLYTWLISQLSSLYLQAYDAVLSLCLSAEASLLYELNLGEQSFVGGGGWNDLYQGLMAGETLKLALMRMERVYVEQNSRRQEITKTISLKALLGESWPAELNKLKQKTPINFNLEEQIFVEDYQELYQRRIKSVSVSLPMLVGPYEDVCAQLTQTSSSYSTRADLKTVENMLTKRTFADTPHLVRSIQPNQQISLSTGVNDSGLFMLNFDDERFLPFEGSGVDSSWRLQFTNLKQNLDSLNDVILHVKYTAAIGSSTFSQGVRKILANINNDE

With “YenA2 (from UniProt B6A878 1-1364) (natural protein)”, the stoichiometry N in assay [1] and in assay [2] was 5 in each case.

Usually stoichiometry N stands for the number of molecules, sites or subunits per partner or assembly.
